Results: paper PMC4628001, “Hybrid PET/optical imaging of integrin αVβ3 receptor expression using a ^64Cu-labeled streptavidin/biotin-based dimeric RGD peptide” (EJNMMI Research, 2015)

Target: T1, integrin αVβ3 (Homo sapiens, UniProt P05106+P06756)
T1 construct: U87MG cells, which are known to express high levels of integrin αVβ3; endogenous in cells; host or cells: U87MG cells
Assay: Cell integrin receptor binding, U87MG cells, ^125I-RGDyK radioligand
Details: displacement of ^125I-RGDyK, room temperature 1 h, pH 7.4 binding buffer, n = 3
Procedure: The integrin αVβ3 receptor binding study was performed using a previously reported procedure with a slight modification. ^125I-RGDyK was used as the radioligand and prepared immediately before use. […] All experiments were performed in triplicate. IC50 values were determined using GraphPad Prism software 5.

T1 sequence (P06756 31-889 limits assumed): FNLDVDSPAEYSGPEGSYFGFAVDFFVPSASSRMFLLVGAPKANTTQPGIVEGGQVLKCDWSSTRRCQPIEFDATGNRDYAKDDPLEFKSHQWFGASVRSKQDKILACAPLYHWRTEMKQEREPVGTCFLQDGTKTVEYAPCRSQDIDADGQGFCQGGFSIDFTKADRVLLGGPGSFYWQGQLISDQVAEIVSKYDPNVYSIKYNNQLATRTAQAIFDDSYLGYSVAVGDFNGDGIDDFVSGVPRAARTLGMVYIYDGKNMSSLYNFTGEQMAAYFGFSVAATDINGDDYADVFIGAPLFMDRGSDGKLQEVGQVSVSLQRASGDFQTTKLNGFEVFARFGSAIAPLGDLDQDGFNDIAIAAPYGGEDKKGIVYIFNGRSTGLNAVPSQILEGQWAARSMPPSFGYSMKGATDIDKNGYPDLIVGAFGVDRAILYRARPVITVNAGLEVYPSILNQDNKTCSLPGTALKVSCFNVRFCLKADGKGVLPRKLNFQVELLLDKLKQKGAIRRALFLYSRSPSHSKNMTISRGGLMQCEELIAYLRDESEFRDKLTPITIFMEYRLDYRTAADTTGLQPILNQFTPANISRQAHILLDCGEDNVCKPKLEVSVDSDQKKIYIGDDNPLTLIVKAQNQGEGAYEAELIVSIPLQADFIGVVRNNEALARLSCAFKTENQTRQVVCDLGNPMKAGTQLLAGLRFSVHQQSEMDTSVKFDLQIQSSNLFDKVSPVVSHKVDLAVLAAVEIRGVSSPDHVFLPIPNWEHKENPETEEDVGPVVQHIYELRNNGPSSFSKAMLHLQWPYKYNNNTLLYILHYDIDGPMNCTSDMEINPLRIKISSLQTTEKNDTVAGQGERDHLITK
T1 sequence (P06756 891-1048 partner limits assumed): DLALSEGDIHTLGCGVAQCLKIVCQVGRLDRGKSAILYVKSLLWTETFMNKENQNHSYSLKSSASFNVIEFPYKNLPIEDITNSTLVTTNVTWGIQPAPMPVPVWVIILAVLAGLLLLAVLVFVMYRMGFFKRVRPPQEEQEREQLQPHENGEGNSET
T1 sequence (P05106 27-788): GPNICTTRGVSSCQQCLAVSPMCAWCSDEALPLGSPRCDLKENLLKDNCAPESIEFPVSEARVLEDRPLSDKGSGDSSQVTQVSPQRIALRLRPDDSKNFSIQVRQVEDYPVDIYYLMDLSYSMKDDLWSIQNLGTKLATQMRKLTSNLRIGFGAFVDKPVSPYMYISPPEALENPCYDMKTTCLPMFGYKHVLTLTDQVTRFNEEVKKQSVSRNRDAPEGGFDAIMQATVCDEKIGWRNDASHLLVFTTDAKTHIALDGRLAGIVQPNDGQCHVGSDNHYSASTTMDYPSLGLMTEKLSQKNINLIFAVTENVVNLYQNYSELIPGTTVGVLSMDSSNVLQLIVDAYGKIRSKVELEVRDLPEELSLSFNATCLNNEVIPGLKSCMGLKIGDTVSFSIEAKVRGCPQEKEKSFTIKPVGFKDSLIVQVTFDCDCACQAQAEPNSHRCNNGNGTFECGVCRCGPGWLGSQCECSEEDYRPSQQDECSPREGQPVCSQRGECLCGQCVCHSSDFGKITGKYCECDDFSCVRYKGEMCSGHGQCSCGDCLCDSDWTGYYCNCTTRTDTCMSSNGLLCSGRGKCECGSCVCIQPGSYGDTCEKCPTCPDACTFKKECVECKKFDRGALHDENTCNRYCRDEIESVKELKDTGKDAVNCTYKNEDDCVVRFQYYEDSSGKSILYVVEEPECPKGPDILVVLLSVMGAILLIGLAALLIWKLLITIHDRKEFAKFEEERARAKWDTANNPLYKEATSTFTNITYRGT

Work on “DOTA-(AF)SAv/biotin-PEG-RGD2: unlabeled complex comprising DOTA-(AF)SAv and biotin-PEG-RGD2” yielded an IC50 of 12.1 ± 4.2 nM.
